# Reference: publication PMC6080600 (Nature structural & molecular biology, 2018)
# B1: zebrafish RAG1 (recombination-activating gene 1 protein), residues 271-1031, with N-terminal 6xHis-MBP tag (domain or fragment, UniProt O13033 271-1031, looked up)
# chain: RCQRDHLSTKLIPTEVPADLIRAVTCQVCDHLLSDPVQSPCRHLFCRLCIIRYTHALGPNCPTCNQHLNPSHLIKPAKFFLATLSSLPLLCPSEECSDWVRLDSFREHCLNHYREKESQEEQTPSEQNLDGYLPVNKGGRPRQHLLSLTRRAQKHRLRDLKNQVKTFAEKEEGGDVKSVCLTLFLLALRAGNEHKQADELEAMMQGRGFGLHPAVCLAIRVNTFLSCSQYHKMYRTVKATSGRQIFQPLHTLRNAEKELLPGFHQFEWQPALKNVSTSWDVGIIDGLSGWTVSVDDVPADTISRRFRYDVALVSALKDLEEDIMEGLRERALDDSMCTSGFTVVVKESCDGMGDVSEKHGSGPAVPEKAVRFSFTIMSISIRLEGEDDGITIFQEQKPNSELSCRPLCLMFVDESDHETLTAILGPVVAERKAMMESRLIISVGGLLRSFRFFFRGTGYDEKMVREMEGLEASGSTYICTLCDSTRAEASQNMVLHSITRSHDENLERYEIWRKNPFSESADELRDRVKGVSAKPFMETQPTLDALHCDIGNATEFYKIFQDEIGEVYQKPNPSREERRRWRSTLDKQLRKKMKLKPVMRMNGNYARRLMTREAVEAVCELVPSEERREALLKLMDLYLQMKPVWRSTCPSRDCPDQLCQYSYNSQQFADLLSSMFKYRYDGKITNYLHKTLAHVPEIVERDGSIGAWASEGNESGNKLFRRFRKMNARQSKTFELEDILKHHWLYTSKYLQKFMEAHKNS
# Molecular target: the molecule itself
# Assay: cryo-EM structure
protein,measurement,value
B1,stoichiometry N,2
